Source: the supplement of paper PMC12636428

System: Saccharomyces cerevisiae
Assay: transcriptional activation domain activity (GFP:mCherry ratio, weighted mean of sorted bins, harmonized to initial dataset scale) (arbitrary fluorescence ratio units); higher = stronger transcriptional activation
Conditions: beta-estradiol 1 µM; induction time 4 h
Protocol: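 53-aa protein tiles (fungal proteins plus yeast TF control tiles) fused C-terminally to a DBD-estrogen-binding domain-mCherry synthetic TF, integrated in S. cerevisiae (URA3 locus) with a GFP reporter. Cells were induced with 1 uM beta-estradiol for 4 h at 30 C, FACS-sorted into 8 bins by GFP:mCherry ratio and barcodes sequenced. Activity is the read-weighted mean bin fluorescence (GFP:mCherry), averaged over barcodes (median 12); tiles under 50 reads were discarded. New active-learning values were harmonized by linear fit onto the scale of the initial (Hummel et al.) dataset. The assay saturates at low and high signal.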

Sequence	transcriptional activation domain activity
LSLWFLILGALSTTSSFFNIFILQWGVIRCCSVIGPGPCTESILGITQLAVQF	51100
MIYGWSIFFFFFFFALHVYIRVFLWGRFCLRVVWVRLFLFHFSGWGCNFGGFV	49700
RKKSALEEEERKEKENDELEKKGKRKEEKEEKRRRGKGEKKGKEIRKEKEEKE	25300
DNMSLLNLPILEETVSSGQDDKVEPDEEDIWNYLPSSSSQQEDSSRALKKNTN	20900
YVDEENQSSNGAVRLWKRHFTLSGIMNRLLRKTVRRNTWIYISVSTLIVQIRR	45700
MVFFTSSFLLGFFSFVSFRNHCSFFLMAPFLTGSELFLFFVLLFILFFFFGFG	48800
FFFSGTALRGIYVGCLVFLVLLWFLHMFFILFTFPFFFVLVWVLLFFRELHFA	50600
DHSDKIDKKRKDEDDSKRSKSDRKSKRDEERFSDSDKGARLDKDHSKSSRSKS	43500
MSWLVSISFMFYTFILPFYYYYKHSTTLFIYTYIYISLYIPIWFVYNHPYHLL	43000
MVLIFFLYWLWFMWGLYLFFFSFFSRAKYWLLVLVVFFFGWGFYIVWSFSLHD	57500
YSLNIFIFGNGRYGSTIQANLHGLRSFIRLVPKDCLALIRHLHLHIFFSGLPD	54800
ENASEPQKQEAEEKPKSTTAASTSVPRSSKPSVEAKPVRKSRRTGAQRRAPSQ	38800
YTTPQFAGMWSQLVEWQWLVIEKFLDILLNMLYLLHGMSYIWGNLFLPYFRLV	53600
KTIGKQDPYCAARLGKEAKKTETDRRGGQTPRWDQELRFTVHDSPDYYQLKVS	55000
MVIRYGKLNLKYHPVHCLNHFQILCLSWAFCALLDPVGLIVSILLWKLLPTIE	69300
MGLIYLYFIFFINLLIWFSVVFCELYFFFFCLCLSNCIFEIYFYVLFFNIFLY	51000
GSVKKKLASSSRTGQACDRCKVRKIRCDPRPEGCSPCAQNRTPCKTTDRITGR	41900
RFLLAALLLFGPLIGSCPSMSMSLMITEFGLFCCACLLGFVHHLFFPIFVESR	47600
EDSEEKPRKKTPRKAAASKPKSKGKKKADSDSGEESDAEPRAKKSATKGKGKK	25500
TTLVNTTAPYFPYSFSALEGSTFNGFSFDQTMFDLFLEVWEQTDPLMNYLFDF	162000
NGLENAASVITILDKSSNGTFINGEKIGKGQQRLLKDGNEVSFGVCVRSTENN	24500
QITNRILPSPAAVRYSGLIPLLVLVLVLPLFFLFFLFFFFFLFLFLFFLVLLY	58800
IHRLTFFFFFCFFFFFFCLFSFSVSFFFFLFFFFLFSTSLLARRFLSLFSSVA	50100
VHVNDMVGFKFMSDKHEIFSKVLLTDVLKGTLAHQWLGYNVLFSNGSEWHFFR	59100
MPAVKKDAPSQRQQDKESKRARGALSCAECRRLKLKCDKTVPCSSCKRRGCSA	34600
QRKLLWMCVHNIESLVCLGTGRGISSKITDNMLGMLISTKIFNLAEAGLRLEI	67000
NLYGNDEEVLFYEDNYNPKMQWSLQDNSAAINNEDARAIFNNEFDSDDDDISD	86600

Sequence	transcriptional activation domain activity
ENHPPGVAAQILIARISWILWHSVEQIRITVWVVGRKFMMVLLQGTVPRISVR	71600
MLCFIDLLIFGISLCFLSLLLFLSFFLLFFFFFLVFSEEFVLLHSAAWSFILS	41200
ASGSGSGSKSGGGGARQGGGGAAGAAGGKGGGAAGGSKGGGGAWGKMKAAASD	18700
ILTILYKSNAVFFLEWMVFVAYQIFNLFAWVFNCWGKILPKVGSFFLYVSLVS	63000
GKAKASKTAGAGLAKASKAPKVPKAGGKGAKASKGAKAPKASKAAGAAGAKAS	28400
GNGKNKHTQRHRGGEKRNLPPSKKQRRKKKSRRIRHRKAQPHPDDEQLQDDKG	17000
MLLTLLWLFFFFFFFFFPNIPPGVLFTFPSFDLLFASWFISSICASPFFAQFP	56100
MNFWAWFFFFFYSLLILITSFLSFVFFFSLFLFWFLFLFLFPFLSLLIFPLPS	41100
VWVCGFLVVYLFYTWGVLSFVFFQMLINHLSFINLFFFYILSSFIGGLTLNFF	51200
ELLDELLARNKSLVILVLDQIFMFILAWNRDYDRYDIQKIIGLYYIQSNVSLF	52100
DDLLVCVAQVVDICYSVFFWFPGIQFQPRPPPLPPIINLWASNILMYTILWIS	60700
EILHLMVDRDLFLLLAIDGIMCLATSFGFLLQKAIVHDCLTWNGSGWIIQSLW	68500
IYFTFRILLYAIWCALAKVHRWNKTTLWNTLCKYLSRLVAATKSRTKTHAPWL	49300
MIFIYMIFIYVIFLFLYFYIFFYFLFFIFIIFICCYFIFLYYLFSYFPFFLFY	43500
MYETNLFQWKLSIGFGFVLDYFIGLFLLDFFILDCIFYLLINSAICVFYSLSG	58100
MEDAADDGAASTKKAKVSKKRKKDIESDGEQEKPAKTPKTKLKLNNKTPKEAS	48700
MFFFLLLFIIVMYGCLVCEVIHTSFVGLIMVSTLMLNAFSCFMSFTYFLFFLF	59000
MSSAASSTGSPRPKRRRRRPARSCEQCRRRKIRCDMGQPCNGCVRARVSMECS	38300
TRVMAEENGMTVDEKAFEEAQEAAKEASRKARGGKGGEEAVALDVHDLAALEK	36200
MPVLFVFFSSFHSFIFLFFFYYGWLKVVIQVVMRLWGYKSLVGFFFLHGLLVC	66500
MISFVSIVSILLAKSAFLFYFLRQDSFLPNLVFCLCISLLLLLVCLLQWLLVC	53700
ALCRVAARALDTVRMLSTKVRLMLVHAFRRLEPLDVAFQSRSAVPMMSLGIQL	66600
MNHTSRFFSPFFLFSLFLSFPSFLLPCFLLLFLFLPFLPPSLSLLSLILYKFW	31900
TRHLHFTRYHIFTNSKCILLAVGKLLYCACALGWYGLIVGFVVTVLMLCQDSL	22600
NKVLRWALDSHIKKWSLDHLRTIAHLIQVVELHHFWSEKENAVALIRVIFKSL	59700
LPLIQRFLIIAPAVIFYSYVYIVPTARRLQLRVCIRNWLGRWYVHLPVLSRSH	57400
KEEAPAEEQEKEEKKEKVPLSDARKGRARGPQRRAPAAAKAAAAAAAAPAPAV	34400

Sequence	transcriptional activation domain activity
RVELLLRSFKVFTLKTGEQCLDYLGDKFRVVLNLPEDWTNTAVGAWLVQKVIL	39700
KDYSVEAGIRFLQFIIHKCITVDIGVLCDIIDKVYGSLVIINCLRRYRNLHNL	48500
VVVKVALLLRWLVMVYDVLDGHTMLSQLYGLLFNCLDMISLRTHICHLLSLLT	27000
RDDGDDDDGDDHDEEREDGGTRGEGRRRGEKGGREGEAARAEVHEASAEAEAG	16300
PCMLRLLIWIAFKLVPENSSIREPLNFLLDHPRRCYTLLFPSGPTWTLFAFLV	60500
HRVSMFLGYNPGNIVSNCRRCLDQWGPDILIHPSRIYLVVLPWLPPFFRKQLR	56400
TIGFVGFVMSLQKGYLKQQFGLFCWVHMSLLIIVLSSHFIVNNILEGLIWFWV	58700
FMSDVGILRWSKLGMPIQSLYQAIWLTFWCSFPFIRDWSWTAQVFFTLHLLSI	43100
DGGGRDSEKRGKGKLITRKSHRKSRLGCGNCKQRRIKCDEKRPHCTNCQKRDI	37600
LIFTSVHFLVFNIGDLLGRYLCLVPQLLLWDASKLLTLSLLRTFFIPLFLACN	38500
MGYGEQRGSFGGRGGRGGSRGGRGGFGGGDRFNQGPPSEVVVVGAFVSACEGE	52900
LSFLLSFPLPLIPHVLPSLFPCPLFLPLFPPSLPLSPFPPLPLFPPSPFFPLS	62300
MVDSRMLGETETGLFLSFIFFRIIFILVLPYLASCSKYVHLLFLYCFLLLRFF	54600
AADQVQDTAGQAVNQVGDTAGKALGGLTGGGKKEQGGEEEGGGEQLRLRLELN	35700
VGLAIYCVSQHLMIPSATELICMYPVVNSTIGLITYYYLIFSFLFGIMIITYC	64600
NTWLQQLQDELNGSYSLTDNVNTPIDPSLSDLGVTSASPLAGNSPGLPPEEVR	92100
ALRREYLTLNGFMPSRINWAIQSSGVDYLHLLIIAMEHLITRFRLSARLAITV	53800
RRRVNLLVCTCGMLISLIVVGGLGTTHRGGPFNKPVGITIVVFSYINIICFNF	45300
LVLRSPAILTLEEEEDVAANLSQYSVQCSEVDKFLLTYVILKLKLVKGKCLIF	72300
GARTGKDKEKEKDKEKDKGARRSSCRSWSRDRGRSRSRSPRRDRERDRERGRG	31500
MRVGVGGLLWLLCGSPFFFLHFISFVFLFFWSLLFFLFCRALHTPFSSYYNYH	72000
MSDWEEKWSKSRNRPYYFNKTTNESVWDKPDGFDGPAAKPPGSEGKVRASHLL	38300
EDEEESSKEETEKQRNKLRELIYEFIAKDVASRVELAKYWLSEEWNCAVGPQT	35300
QPSQVPQEDQPEHEPERKRRPGRPRGSKNRKPRADSAKQPQQQQQQQQQPHPQ	59500
MGCILIFIFTFPYTPSFPFPFWFLFFVFLSFSFSFQKFLVFSFLSFVWVTVGR	51700
